Non-standard residues stand in square brackets, D forms with d. No end group written: not given here. pY = N[C@@H](Cc1ccc(OP(=O)(O)O)cc1)C(=O)O
Assays:
[1] = target: T1, Syk tandem SH2 (tSH2) fragment, amino acids 9-264 (UniProt P43405 9-264); test: SPR
[2] = target: T1, Syk tandem SH2 (tSH2) fragment, amino …; test: thermal shift assay

IC50 [1]: 15 µM
Kd [2]: 4.2 ± 0.68 µM
Binder: NPD[pY]EPIRKGQRDL[pY]SGLNQR [pITAM peptide from CD3ε chain, doubly phosphorylated]
